The source of these data is patent publication US8822187B1, “Polypeptides, nucleic acid molecules, and methods for synthesis of triterpenes” (University of Kentucky Research Foundation, priority 2011, dated 2014).

The term Km denotes the concentration of substrate that gives half-maximal velocity. One may read the kcat as the number of substrate molecules converted per active site and unit of time at saturation.

Data set [1] can be described thus: NADPH oxidation versus squalene and bisfarnesyl ether recovery. The format is biochemical. As for the experimental part:
With reference to Table 2, Assays were performed as described above in the Methods except that an alternative reaction buffer (50 mM Tris pH 8.0, 250 mM NaCl, 20 mM MgCl2) was used to minimize spontaneous NADPH oxidation and prevent protein precipitation at high concentrations. […] An extinction coefficient of 6220/M/cm was used to calculate the amount of NADPH oxidized. No NADPH oxidation could be measured in complete reaction buffer without protein over a 1 h incubation. […] This background NADPH oxidation was subtracted from the experimental determined rates. The experimental enzyme assays contained either purified TSS (0.75 or 1.5 μg) or SSL-2 (8 or 16 μg) and 40 μM ^3H-FPP. Absorbance at […] was recorded every 2.5 min. for 15 minutes, after which the reaction was stopped by adding an equal volume of 0.5 M EDTA. The reaction mixture was collected, extracted with 200 μl of hexane and aliquots were separated by silica TLC along with standards of squalene and bisfarnesyl ether using hexane:MTBE (25:1) as the developing solvent. The standards were subsequently visualized with iodine vapor, and corresponding zones analyzed by scintillation spectroscopy. Data represents mean±S.E.M of duplicate samples.

Substrate in data set [2]: CC(C)=CCC/C(C)=C/CC/C(C)=C/CO[P@@](=O)(O)OP(=O)(O)O
Description: purified protein, by the assay type. As to conditions: other: purified SSL-1, 3H-FPP, 0.1% triton X-100, 15 min at 37° C., PSPP as sole reaction product.

A short description of data set [3]: Michaelis-Menten enzyme kinetics of the SSL-1 reaction (3H-FPP to PSPP). The format is biochemical. Particulars: after acid phosphatase dephosphorylation. The method, then:
FIG. 5 depicts Michaelis-Menten enzyme kinetics of the SSL-1 reaction. Enzyme assays (50 μl) were set up as described in the methods section with purified SSL-1 (0.2-1.0 μg), 0.1% triton X-100, ±2 mM NADPH, and the indicated concentration of ^3H-FPP. Assays were incubated for 15 min at 37° C. and stopped by addition of 50 μl 0.5 M EDTA. The reactions were then extracted 3× with 200 μl water saturated 1-butanol and pooled in a 4 ml glass screw cap vial. […] The standards were visualized with iodine vapors and the zones corresponding to FOH (rf=0.65) and PSOH (rf=0.45) were scraped and analyzed by scintillation spectroscopy. […] The data was analyzed using the SigmaPlot Enzyme Kinetics 1.3 software. […]
Typical enzyme assays were initiated by mixing aliquots of purified enzyme with 50 mM Mops, pH 7.3, 20 mM MgCl2, 2.5 mM 2-mercaptoethanol, 10 μM [1-^3H]-FPP (˜2×10^5 dpm total), and 2 mM NADPH in total reaction volume of 50 μl. […] The standards were visualized with iodine vapors and TLC zones corresponding to the standards were scrapped and analyzed by scintillation spectrometry. […] Extracts were resuspended in 50 μl hexane and an aliquot analyzed by GC-MS with a Varian CP-3800 GC coupled to a Varian Saturn 2200 MS/MS (Varian Medical Systems) using a Supelco SLB-5 ms fused silica capillary column (30 m×0.25 mm×0.25 μM film thickness, Supelco). […]

Setting [4] is: 100 μM NADPH, 40 μM 3H-FPP, 15 minutes, 23° C.

B1: SSL-2: Botryococcus braunii race B squalene synthase-like 2 enzyme; bacterial form is truncated SSL-2-tr2 (protein)
chain: MVKLVEVLQHPDEIVPILQMLHKTYRAKRSYKDPGLAFCYGMLQRVSRSFSVVIQQLPDELRHPICVFYLILRALDTVEDDMNLPNEVKIPLLRTFHEHLFDRSWKLKCGYGPYVDLMENYPLVTDVFLTLSPGAQEVIRDSTRRMGNGMADFIGKDEVHSVAEYDLYCHYVAGLVGSAVAKIFVDSGLEKENLVAEVDLANNMGQFLQKTNVIRDYLEDINEEPAPRMFWPREIWGKYAQELADFKDPANEKAAVQCLNHMVTDALRHCEIGLNVIPLLQNIGILRSCLIPEVMGLRTLTLCYNNPQVFRGVVKMRRGETAKLFMSIYDKRSFYQTYLRLANELEAKCKGEASGDPMVATTLKHVHGIQKSCKAALSSKELLAKSGSALTDDPAIRLLLLVGVVAYFAYAFNLGDVRGEHGVRALGSILDLSQKGLAVASVALLLLVLLARSRLPLLTSASSKQ
Take B1: in data set [1], the Bisfarnesyl ether formed result was “greater than 21 pmoles”, the “NADPH oxidation not associated with squalene biosynthesis” value turned out to be 2.4 pmol, the NADPH oxidized stood at 4.6 pmol and the squalene biosynthesis is 2.2 pmol. Moreover, the “bisfarnesyl ether formed per mole equivalent of NADPH oxidation” value in data set [1] (21 pmoles versus 2.4 pmoles) is given as “about 10 times”. Further, in data set [1] (setting [4]), the “pmoles bisfarnesyl ether recovered per μg protein” value was 21.7 ± 1.8 pmoles per μg protein and the “pmoles squalene recovered per μg protein” value was determined as 2.2 ± 0.4 pmoles per μg protein. In addition, the “pmoles NADPH oxidized per μg protein” value in data set [1] (100 μM NADPH, 40 μM FPP, 15 minutes, 23° C., background subtracted) was 4.6 ± 2.6 pmoles per μg protein. Further, the “NADPH oxidation rate in reaction buffer without FPP (background)” value in data set [1] (without FPP) was 22 pmoles/μg protein/h.

B2: Botryococcus braunii race B squalene synthase-like 1 (SSL-1), wild type, hexa-histidine tagged, SEQ ID NO: 2 (Botryococcus braunii) (protein)
chain: MTMHQDHGVMKDLVKHPNEFPYLLQLAATTYGSPAAPIPKEPDRAFCYNTLHTVSKGFPRFVMRLPQELQDPICIFYLLLRALDTVEDDMNLKSETKISLLRVFHEHCSDRNWSMKSDYGIYADLMERFPLVVSVLEKLPPATQQTFRENVKYMGNGMADFIDKQILTVDEYDLYCHYVAGSCGIAVTKVIVQFNLATPEADSYDFSNSLGLLLQKANIITDYNEDINEEPRPRMFWPQEIWGKYAEKLADFNEPENIDTAVKCLNHMVTDAMRHIEPSLKGMVYFTDKTVFRALALLLVTAFGHLSTLYNNPNVFKEKVRQRKGRIARLVMSSRNVPGLFRTCLKLANNFESRCKQETANDPTVAMTIKRLQSIQATCRDGLAKYDTPSGLKSFCAAPTPTK
With B2, in data set [2], the Km stood at 12.8 µM and the kcat amounted to 0.027 s⁻¹. For the same molecule, in data set [3], the “input radioactivity recovered as FOH and PSOH” value is “greater than 95%”.
